We go through one protein from PMC7652922.

The nature of the data set: L-[14C]arginine to L-[14C]citrulline conversion, transfected HEK293, low glucose. The conditions noted are these: glycan lost; control: WT-eNOS.

B1: endothelial nitric oxide synthase (eNOS): T866A (protein)
parent chain: MGNLKSVAQEPGPPCGLGLGLGLGLCGKQGPATPAPEPSRAPASLLPPAPEHSPPSSPLTQPPEGPKFPRVKNWEVGSITYDTLSAQAQQDGPCTPRRCLGSLVFPRKLQGRPSPGPPAPEQLLSQARDFINQYYSSIKRSGSQAHEQRLQEVEAEVAATGTYQLRESELVFGAKQAWRNAPRCVGRIQWGKLQVFDARDCRSAQEMFTYICNHIKYATNRGNLRSAITVFPQRCPGRGDFRIWNSQLVRYAGYRQQDGSVRGDPANVEITELCIQHGWTPGNGRFDVLPLLLQAPDDPPELFLLPPELVLEVPLEHPTLEWFAALGLRWYALPAVSNMLLEIGGLEFPAAPFSGWYMSTEIGTRNLCDPHRYNILEDVAVCMDLDTRTTSSLWKDKAAVEINVAVLHSYQLAKVTIVDHHAATASFMKHLENEQKARGGCPADWAWIVPPISGSLTPVFHQEMVNYFLSPAFRYQPDPWKGSAAKGTGITRKKTFKEVANAVKISASLMGTVMAKRVKATILYGSETGRAQSYAQQLGRLFRKAFDPRVLCMDEYDVVSLEHETLVLVVTSTFGNGDPPENGESFAAALMEMSGPYNSSPRPEQHKSYKIRFNSISCSDPLVSSWRRKRKESSNTDSAGALGTLRFCVFGLGSRAYPHFCAFARAVDTRLEELGGERLLQLGQGDELCGQEEAFRGWAQAAFQAACETFCVGEDAKAAARDIFSPKRSWKRQRYRLSAQAEGLQLLPGLIHVHRRKMFQATIRSVENLQSSKSTRATILVRLDTGGQEGLQYQPGDHIGVCPPNRPGLVEALLSRVEDPPAPTEPVAVEQLEKGSPGGPPPGWVRDPRLPPCTLRQALTFFLDITSPPSPQLLRLLSTLAEEPREQQELEALSQDPRRYEEWKWFRCPTLLEVLEQFPSVALPAPLLLTQLPLLQPRYYSVSSAPSTHPGEIHLTVAVLAYRTQDGLGPLHYGVCSTWLSQLKPGDPVPCFIRGAPSFRLPPDPSLPCILVGPGTGIAPFRGFWQERLHDIESKGLQPTPMTLVFGCRCSQLDHLYRDEVQNAQQRGVFGRVLTAFSREPDNPKTYVQDILRTELAAEVHRVLCLERGHMFVCGDVTMATNVLQTVQRILATEGDMELDEAGDVIGVLRDQQRYHEDIFGLTLRTQEVTSRIRTQSFSLQERQLRGAVPWAFDPPGSDTNSP
Consider B1, for which the “enzymatic_activity, fold_change” value is listed as “decreases, compared with T866A-eNOS, the activity of WT-eNOS was increased 8 to 10 folds”.
